Assay results as given in patent US20170183390A1 (published 2017).
Ends that are not written are not given here. * marks the point of attachment. FITC = O=C1OC2(c3ccc(O)cc3Oc3cc(O)ccc32)c2ccc(NC(=S)*)cc21

Tests used:
[1] = biological target: T1, soluble αVβ6 headpiece, disulfide-linked (αV headpiece residues 1-594 with M400C); β6 headpiece residues 1-474 … (UniProt P06756 31-624; P18564 18-491, Interchain disulfide between αV Cys-400 and β6 Cys-270.); test: fluorescence anisotropy competition
T1 alpha: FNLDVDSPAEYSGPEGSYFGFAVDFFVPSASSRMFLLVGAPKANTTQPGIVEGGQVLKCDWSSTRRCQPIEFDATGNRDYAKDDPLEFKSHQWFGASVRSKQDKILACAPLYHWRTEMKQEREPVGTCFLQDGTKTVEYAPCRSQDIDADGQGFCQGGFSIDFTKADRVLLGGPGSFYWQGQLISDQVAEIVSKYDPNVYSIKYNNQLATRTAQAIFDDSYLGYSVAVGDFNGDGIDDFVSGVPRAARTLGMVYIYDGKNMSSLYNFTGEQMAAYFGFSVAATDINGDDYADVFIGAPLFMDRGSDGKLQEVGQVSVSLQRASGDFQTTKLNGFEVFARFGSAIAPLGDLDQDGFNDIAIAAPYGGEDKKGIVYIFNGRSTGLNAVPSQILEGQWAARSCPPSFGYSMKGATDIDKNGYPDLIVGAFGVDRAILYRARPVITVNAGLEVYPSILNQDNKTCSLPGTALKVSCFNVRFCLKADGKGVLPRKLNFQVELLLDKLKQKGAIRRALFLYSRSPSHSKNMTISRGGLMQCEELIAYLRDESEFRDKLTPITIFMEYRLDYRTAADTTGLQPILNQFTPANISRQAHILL
T1 beta: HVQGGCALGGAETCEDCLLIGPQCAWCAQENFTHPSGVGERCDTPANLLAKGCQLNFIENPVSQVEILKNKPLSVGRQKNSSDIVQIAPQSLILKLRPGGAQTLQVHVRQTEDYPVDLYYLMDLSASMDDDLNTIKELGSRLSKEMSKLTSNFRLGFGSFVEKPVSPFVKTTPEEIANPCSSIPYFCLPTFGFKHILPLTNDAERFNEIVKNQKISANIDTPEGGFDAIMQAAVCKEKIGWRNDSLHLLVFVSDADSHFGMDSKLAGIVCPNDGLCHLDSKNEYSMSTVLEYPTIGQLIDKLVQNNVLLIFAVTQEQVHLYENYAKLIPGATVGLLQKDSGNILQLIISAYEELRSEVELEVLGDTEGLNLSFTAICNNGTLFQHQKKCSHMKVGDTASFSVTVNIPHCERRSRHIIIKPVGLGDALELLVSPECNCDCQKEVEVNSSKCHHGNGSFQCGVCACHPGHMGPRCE

[2] = biological target: T2, soluble αVβ6 headpiece, disulfide-linked (αV headpiece residues 1-594 with M400C); β6 headpiece residues 1-474 … (human, UniProt P06756 31-624; P18564 18-491, Interchain disulfide between αV Cys-400 and β6 Cys-270.); test: fluorescence anisotropy, saturation binding, Mn2+/Ca2+
T2 construct: The 3C site, ACID/BASE coiled-coils, Strep-II tag and His tags were cut off with 3C protease; The two chains are linked by the introduced disulfide bond; also called modified integrin αVβ6 headpiece dimer; full headpiece
Method: (§1) (SEQ ID NO: 68), was synthesized. […] By competition binding assay, the affinities of different ligands were measured.
(§2) Fluorescence anisotropy. […] Binding affinities were calculated as described in Ref. 23.

[3] = biological target: T2, soluble αVβ6 headpiece, …; test: fluorescence anisotropy, saturation binding, 1 mM Mg2+/Ca2+
Method: as §1, §2

[4] = biological target: T1, soluble αVβ6 headpiece, …; test: fluorescence anisotropy; pH 5.0
[5] = biological target: T1, soluble αVβ6 headpiece, …; test: fluorescence anisotropy; pH 6.0
[6] = biological target: T1, soluble αVβ6 headpiece, …; test: fluorescence anisotropy; pH 7.0
[7] = biological target: T1, soluble αVβ6 headpiece, …; test: fluorescence anisotropy; pH 8.0
[8] = biological target: T1, soluble αVβ6 headpiece, …; test: fluorescence anisotropy; pH 9.0
[9] = biological target: T2, soluble αVβ6 headpiece, …; test: crystal structure, peptide soaked into αVβ6 headpiece crystals
Method: αVβ₆ headpiece crystallization, data collection and structure determination. αVβ₆ crystals in hanging drops were formed with 3 mg/ml αVβ₆ headpiece in 20 mM Tris-HCl pH 8.0, 150 mM NaCl, 1 mM CaCl₂ and 1 mM MgCl₂ buffer (1 μl) and 1 μl reservoir solution of 20% PEG 4000, 0.1 M sodium cacodylate pH 6.0, 0.2 M ammonium sulfate. Identical vol:vol mixture of the protein and crystallization buffers yields a pH of 6.5. […] Immediately prior to flash freezing in liquid N₂, crystals were dipped in reservoir solution containing 25% glycerol with or without peptide, MgCl₂, and CaCl₂ each at 0.25 mM.

[10] = biological target: T3, soluble αVβ3 headpiece, disulfide-linked (αV headpiece residues 1-594 with M400C); β3 headpiece residues 1-472 … (UniProt P06756 31-624; P05106 27-498, Interchain disulfide between αV Cys-400 and β3 Cys-267.); test: fluorescence anisotropy competition
T3 alpha: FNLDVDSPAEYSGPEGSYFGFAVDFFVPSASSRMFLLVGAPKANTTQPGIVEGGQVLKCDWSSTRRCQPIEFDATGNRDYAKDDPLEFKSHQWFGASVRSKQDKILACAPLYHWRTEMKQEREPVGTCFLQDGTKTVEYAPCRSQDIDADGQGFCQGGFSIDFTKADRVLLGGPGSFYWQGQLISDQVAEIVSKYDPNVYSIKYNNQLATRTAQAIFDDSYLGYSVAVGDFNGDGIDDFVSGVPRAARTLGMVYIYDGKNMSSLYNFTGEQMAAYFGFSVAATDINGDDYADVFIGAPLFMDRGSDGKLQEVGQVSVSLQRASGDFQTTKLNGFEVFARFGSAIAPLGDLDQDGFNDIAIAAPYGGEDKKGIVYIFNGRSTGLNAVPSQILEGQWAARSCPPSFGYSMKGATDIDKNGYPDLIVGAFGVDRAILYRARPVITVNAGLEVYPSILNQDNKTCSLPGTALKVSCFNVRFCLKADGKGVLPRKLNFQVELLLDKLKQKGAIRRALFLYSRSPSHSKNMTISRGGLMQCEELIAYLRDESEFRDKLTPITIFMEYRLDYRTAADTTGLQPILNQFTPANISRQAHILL
T3 beta: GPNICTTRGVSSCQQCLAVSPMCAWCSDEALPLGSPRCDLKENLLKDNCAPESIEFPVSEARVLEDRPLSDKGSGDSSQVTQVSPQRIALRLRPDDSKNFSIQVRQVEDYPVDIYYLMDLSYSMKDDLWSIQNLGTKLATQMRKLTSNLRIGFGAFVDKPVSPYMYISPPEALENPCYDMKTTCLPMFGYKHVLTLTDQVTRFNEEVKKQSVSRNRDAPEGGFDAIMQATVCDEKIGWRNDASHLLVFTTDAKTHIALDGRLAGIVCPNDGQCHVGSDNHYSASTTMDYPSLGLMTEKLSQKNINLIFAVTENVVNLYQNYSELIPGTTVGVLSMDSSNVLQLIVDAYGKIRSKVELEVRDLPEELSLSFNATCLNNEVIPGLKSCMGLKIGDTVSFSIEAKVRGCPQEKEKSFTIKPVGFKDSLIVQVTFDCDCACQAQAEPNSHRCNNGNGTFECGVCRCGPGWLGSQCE

[11] = biological target: T2, soluble αVβ6 headpiece, …; test: fluorescence anisotropy, competition with FITC-GRGDLGRL on the αVβ6 headpiece
Method: (§3) Ligands bind to the integrin headpiece, which contains the α-subunit β-propeller domain and thigh domain, and the β-subunit βI, hybrid, PSI, and EGF1 domain. […] (SEQ ID NO: 68), peptide affinity for the αVβ₆ and αVβ₃ headpiece was measured with fluorescence anisotropy.
as §2

[12] = biological target: T4, soluble αVβ3 headpiece, disulfide-linked (αV headpiece residues 1-594 with M400C); β3 headpiece residues 1-472 … (human, UniProt P06756 31-624; P05106 27-498, Interchain disulfide between αV Cys-400 and β3 Cys-267.); test: fluorescence anisotropy, competition with FITC-GRGDLGRL on the αVβ3 headpiece
T4 construct: tags and coiled-coils cut off with 3C protease
Method: as §3, §2

HGRGDL showed a Kd [1] of 966 nM.

Work on HGRGDLGRL yielded a Kd [1] of 28.4 nM.

With {FITC}-GRGDLGRL (also called the probe) [FITC-GRGDLGRL (FITC-pro-TGF-β3 peptide, fluorescence probe)] the Kd [2] was 10 nM, the Kd [3] was 100 nM and the Kd [4] was 3810 nM. It also gave a Kd [5] of 2000 nM, a Kd [6] of 212 nM and a Kd [7] of 84.6 nM. The Kd [8] was 27.4 nM.

B1: pro-TGF-β3 undecapeptide Ac-HGRGDLGRLKK-NH2 (peptide)
peptide: Ac-HGRGDLGRLKK-NH2
notes: also called Pro-TGF-β3 peptide; TGF-β3 peptide
For B1, the binding result [9] was “binds” and the Kd [1] was 7.3 nM.

Binder HGRGDLGR has a Kd [1] of 296 nM.

Binder HGRGDLG has a Kd [1] of 691 nM.

HGRGDLGRLK gave a Kd [1] of 20.3 nM.

For TSGDQKTIK (also called pro-TGF-β2 peptide) [homologous peptide from pro-TGF-β2, which has SGDQ in place of RGDL of pro-TGF-β1], the Kd [10] was 4800 nM, the Kd [11] was 8500 nM and the “fold lower affinity than the pro-TGF-β1 and pro-TGF-β3 nonapeptides” value [11] was 1000 fold.

B2: nonapeptide containing RGD from pro-TGF-β3 (GRGDLGRLK) (peptide)
peptide: GRGDLGRLK
notes: also called pro-TGF-β3 peptide; TGF-β3 nonapeptide
In the case of B2, the Kd [10] is reported as 2300 nM, the “fold lower affinity than for αVβ6” value [12] is reported as 1000 fold and the Kd [11] is reported as 8.5 nM.

Work on HGRGD yielded a Kd [1] of 8900 nM.

In the case of RRGDLATIH (also called pro-TGF-β1 peptide) [nonapeptide containing RGD from pro-TGF-β1], the Kd [11] is reported as 10.3 nM.
